Laboratory results reported in patent publication US20230322947A1 (published 2023).

Molecular target: T1, cynomolgous CD3 on the cynomolgous T-cell line HSC-F (cynomolgus, UniProt Q95LI8 22-171; Q95LI7 23-181)
T1 chain: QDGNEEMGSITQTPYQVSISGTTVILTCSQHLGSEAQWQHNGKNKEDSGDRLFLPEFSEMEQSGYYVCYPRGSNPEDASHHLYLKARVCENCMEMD
Assay: FACS binding

- EC50: 3.54 µg/mL
B1: bsIgG1 huCD3-H3L1×HER2-LFLEDA (bispecific antibody)
heavy 1: EVKLVESGGGLVKPGRSLRLSCAASGFTFNTYAMNWVRQAPGKGLEWVARIRSKYNNYATYYADSVKDRFTISRDDSKSILYLQMNSLKTEDTAMYYCVRHGNFGNSYVSWFAYWGQGTLVTVSS
VL 1: not shown
heavy 2: QVQLVQSGAEVKKPGASVKVSCKASGYTFTNYGISWVRQAPGQGLEWMGWLSAYSGNTIYAQKLQGRVTMTTDTSTTTAYMELRSLRSDDTAVYYCARDRIVVRPDYFDYWGQGTLVTVSS
VL 2: EIVLTQSPATLSLSPGERATLSCRASQSVSSYLAWYQQKPGQAPRLLIYDASNRATGIPARFSGSGSGTDFTLTISSLEPEDFAVYYCQQRSNWPRTFGQGTKVEIK
